According to PMC9482650, “Quantitative fragmentomics allow affinity mapping of interactomes” (Nature Communications, 2022):

Columns and labels:
Test in all cases: holdup assay
Design in all cases: key: below the threshold = too weak to quantify, mostly under pKd 3.1 to 4
LNX1_1, Q8TBB1 = molecular target: LNX1_1, Q8TBB1
IL16_1, Q14005 = molecular target: IL16_1, Q14005
SCRIB_1, Q14160 = molecular target: SCRIB_1, Q14160
GRASP, Q7Z6J2 = molecular target: GRASP, Q7Z6J2
GRIP1_7, Q9Y3R0 = molecular target: T1, GRIP1_7, Q9Y3R0
T1 sequence (Q9Y3R0 999-1096, limits assumed, looked up): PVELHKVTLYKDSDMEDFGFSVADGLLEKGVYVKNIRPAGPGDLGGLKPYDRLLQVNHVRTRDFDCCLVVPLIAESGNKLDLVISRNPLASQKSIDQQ

GIPC2, Q8TF65 = molecular target: GIPC2, Q8TF65
Sequence of GIPC2, Q8TF65 (Q8TF65 112-203): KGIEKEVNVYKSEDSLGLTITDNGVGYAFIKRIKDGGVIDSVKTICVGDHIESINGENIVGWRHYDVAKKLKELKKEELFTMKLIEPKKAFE

RHPN1, Q8TCX5 = molecular target: T2, RHPN1, Q8TCX5
T2 sequence (Q8TCX5 508-602, limits assumed, looked up): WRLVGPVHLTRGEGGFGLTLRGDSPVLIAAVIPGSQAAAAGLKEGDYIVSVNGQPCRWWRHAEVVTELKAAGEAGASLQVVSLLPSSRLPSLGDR

MAGI2_3, Q86UL8 = molecular target: MAGI2_3, Q86UL8
Sequence of MAGI2_3, Q86UL8 (Q86UL8 600-682): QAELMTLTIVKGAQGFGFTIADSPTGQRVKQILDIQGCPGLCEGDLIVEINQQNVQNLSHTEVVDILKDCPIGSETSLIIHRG

DLG5_1, Q8TDM6 = molecular target: DLG5_1, Q8TDM6
Sequence of DLG5_1, Q8TDM6 (Q8TDM6 617-713): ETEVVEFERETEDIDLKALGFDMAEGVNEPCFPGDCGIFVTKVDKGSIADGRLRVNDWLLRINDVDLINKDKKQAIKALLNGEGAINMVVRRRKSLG

LNX1_3, Q8TBB1 = molecular target: LNX1_3, Q8TBB1
Sequence of LNX1_3, Q8TBB1 (Q8TBB1 500-596): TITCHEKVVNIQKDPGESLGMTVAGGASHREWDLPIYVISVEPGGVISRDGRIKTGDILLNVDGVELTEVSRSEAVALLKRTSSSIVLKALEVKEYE

NHERF4_1, Q86UT5-2 = molecular target: NHERF4_1, Q86UT5-2
Sequence of NHERF4_1, Q86UT5-2 (Q86UT5 other isoform, or with tags, fused parts or gaps): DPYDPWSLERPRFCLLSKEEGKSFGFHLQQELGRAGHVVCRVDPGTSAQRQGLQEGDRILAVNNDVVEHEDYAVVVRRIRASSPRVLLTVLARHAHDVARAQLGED

MAGI1_2, Q96QZ7 = molecular target: MAGI1_2, Q96QZ7
Sequence of MAGI1_2, Q96QZ7 (Q96QZ7 456-580): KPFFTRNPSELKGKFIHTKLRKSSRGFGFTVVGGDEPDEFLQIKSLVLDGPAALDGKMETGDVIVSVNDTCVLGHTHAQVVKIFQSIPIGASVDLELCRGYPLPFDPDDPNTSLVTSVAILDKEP

DVL3, Q92997 = molecular target: T3, DVL3, Q92997
T3 sequence (Q92997 244-331, limits assumed, looked up): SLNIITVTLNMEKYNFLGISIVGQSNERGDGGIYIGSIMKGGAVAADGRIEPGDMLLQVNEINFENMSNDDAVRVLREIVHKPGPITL

PDZRN4_1, Q6ZMN7 = molecular target: PDZRN4_1, Q6ZMN7
Sequence of PDZRN4_1, Q6ZMN7 (Q6ZMN7 213-318): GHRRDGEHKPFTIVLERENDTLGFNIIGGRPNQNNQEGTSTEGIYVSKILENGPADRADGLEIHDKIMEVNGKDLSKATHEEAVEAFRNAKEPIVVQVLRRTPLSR

HTRA3, P83110 = molecular target: T4, HTRA3, P83110
T4 sequence (P83110 354-453, limits assumed, looked up): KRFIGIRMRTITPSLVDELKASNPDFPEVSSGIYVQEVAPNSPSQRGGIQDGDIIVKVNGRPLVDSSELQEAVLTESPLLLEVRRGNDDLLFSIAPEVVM

GRIP2_5, Q9C0E4 = molecular target: GRIP2_5, Q9C0E4
Sequence of GRIP2_5, Q9C0E4 (Q9C0E4 544-642): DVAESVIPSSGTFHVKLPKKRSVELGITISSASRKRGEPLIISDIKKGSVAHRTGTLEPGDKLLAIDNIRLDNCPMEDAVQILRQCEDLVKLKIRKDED

NHERF4_2, Q86UT5 = molecular target: NHERF4_2, Q86UT5
Sequence of NHERF4_2, Q86UT5 (Q86UT5 220-308): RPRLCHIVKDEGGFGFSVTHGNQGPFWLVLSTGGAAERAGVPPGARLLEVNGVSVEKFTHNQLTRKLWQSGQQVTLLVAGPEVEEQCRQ

TJP1_3, Q07157 = molecular target: TJP1_3, Q07157
Sequence of TJP1_3, Q07157 (Q07157 416-512): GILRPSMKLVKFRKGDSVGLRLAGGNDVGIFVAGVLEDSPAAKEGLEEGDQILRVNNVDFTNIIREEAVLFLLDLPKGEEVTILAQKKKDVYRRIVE

Inadl_10, Q8NI35 = molecular target: Inadl_10, Q8NI35
Sequence of Inadl_10, Q8NI35 (Q8NI35 1673-1763): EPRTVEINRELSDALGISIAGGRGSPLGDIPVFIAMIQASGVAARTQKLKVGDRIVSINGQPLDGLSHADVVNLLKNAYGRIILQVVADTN

LDB3, O75112 = molecular target: LDB3, O75112
Sequence of LDB3, O75112 (O75112 1-94): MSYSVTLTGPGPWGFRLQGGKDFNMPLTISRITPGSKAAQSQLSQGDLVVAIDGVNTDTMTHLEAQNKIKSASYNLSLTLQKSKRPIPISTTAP

MPDZ_12, O75970 = molecular target: T5, MPDZ_12, O75970
T5 sequence (O75970 1857-1958, limits assumed, looked up): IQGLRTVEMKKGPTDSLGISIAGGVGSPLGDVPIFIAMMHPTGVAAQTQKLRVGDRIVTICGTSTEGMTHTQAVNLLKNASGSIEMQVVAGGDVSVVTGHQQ

ARHGEF11, O15085 = molecular target: T6, ARHGEF11, O15085
T6 sequence (O15085 42-136, limits assumed, looked up): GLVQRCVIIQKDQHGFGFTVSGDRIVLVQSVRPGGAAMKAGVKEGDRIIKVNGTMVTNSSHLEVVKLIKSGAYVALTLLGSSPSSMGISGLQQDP

CARD11, Q9BXL7 = molecular target: T7, CARD11, Q9BXL7
T7 sequence (Q9BXL7 662-765, limits assumed, looked up): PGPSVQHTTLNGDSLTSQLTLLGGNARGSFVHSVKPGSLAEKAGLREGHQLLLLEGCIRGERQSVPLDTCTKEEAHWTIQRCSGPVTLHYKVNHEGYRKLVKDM

GRIP1_3, Q9Y3R0 = molecular target: T8, GRIP1_3, Q9Y3R0
T8 sequence (Q9Y3R0 247-346, limits assumed, looked up): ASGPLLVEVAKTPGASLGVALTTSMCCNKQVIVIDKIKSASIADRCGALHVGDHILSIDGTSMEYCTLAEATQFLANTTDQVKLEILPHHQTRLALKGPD

TJP1_2, Q07157 = molecular target: TJP1_2, Q07157
Sequence of TJP1_2, Q07157 (Q07157 181-274): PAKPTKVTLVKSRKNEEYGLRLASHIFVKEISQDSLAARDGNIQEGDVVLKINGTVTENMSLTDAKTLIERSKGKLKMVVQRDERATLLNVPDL

LRRC7, Q96NW7 = molecular target: T9, LRRC7, Q96NW7
T9 sequence (Q96NW7 1440-1537, limits assumed, looked up): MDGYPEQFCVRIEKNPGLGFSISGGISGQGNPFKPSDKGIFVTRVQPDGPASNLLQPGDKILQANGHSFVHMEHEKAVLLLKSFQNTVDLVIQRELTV

NHERF4_4, Q86UT5 = molecular target: NHERF4_4, Q86UT5
Sequence of NHERF4_4, Q86UT5 (Q86UT5 464-550): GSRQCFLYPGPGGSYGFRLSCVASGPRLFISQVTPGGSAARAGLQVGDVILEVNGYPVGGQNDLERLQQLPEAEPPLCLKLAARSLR

LNX2_3, Q8N448 = molecular target: T10, LNX2_3, Q8N448
T10 sequence (Q8N448 463-564, limits assumed, looked up): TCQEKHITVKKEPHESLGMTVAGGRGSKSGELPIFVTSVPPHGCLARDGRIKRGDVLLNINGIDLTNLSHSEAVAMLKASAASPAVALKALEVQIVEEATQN

[1] = plain residues with an end cap or a label only (N-terminal biotin on a linker: (peg)3)
[2] = plain residues with an end cap or a label only (N-terminal biotin on a linker: ado-ado)

Sequence of IL16_1, Q14005 (Q14005 210-306): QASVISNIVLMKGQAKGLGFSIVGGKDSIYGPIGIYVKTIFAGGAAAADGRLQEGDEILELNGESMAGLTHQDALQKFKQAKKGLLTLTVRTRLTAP
Sequence of SCRIB_1, Q14160 (Q14160 718-814): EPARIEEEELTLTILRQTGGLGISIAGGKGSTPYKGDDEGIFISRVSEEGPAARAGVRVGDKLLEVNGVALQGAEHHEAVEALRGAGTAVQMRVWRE
Sequence of LNX1_1, Q8TBB1 (Q8TBB1 261-371): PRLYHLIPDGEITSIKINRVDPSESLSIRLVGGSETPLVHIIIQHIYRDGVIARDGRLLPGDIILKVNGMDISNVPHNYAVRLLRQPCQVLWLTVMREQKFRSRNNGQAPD
Sequence of GRASP, Q7Z6J2 (Q7Z6J2 96-193): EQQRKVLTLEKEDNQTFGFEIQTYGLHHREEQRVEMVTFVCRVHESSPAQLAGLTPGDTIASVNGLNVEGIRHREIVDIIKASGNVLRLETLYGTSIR

B1: SARS-Cov2-3a, P0DTC3 (peptide)
chain: YDEPTTTTSVPL
pKd (LNX1_1, Q8TBB1; [1]): below the threshold
pKd (IL16_1, Q14005; [1]): below the threshold
pKd (SCRIB_1, Q14160; [1]): below the threshold
pKd (GRASP, Q7Z6J2; [1]): 3.83
pKd (GRIP1_7, Q9Y3R0; [1]): below the threshold
pKd (GIPC2, Q8TF65; [1]): below the threshold
pKd (RHPN1, Q8TCX5; [1]): below the threshold
pKd (MAGI2_3, Q86UL8; [1]): below the threshold
pKd (DLG5_1, Q8TDM6; [1]): below the threshold
pKd (LNX1_3, Q8TBB1; [1]): below the threshold
pKd (NHERF4_1, Q86UT5-2; [1]): 4.43
pKd (MAGI1_2, Q96QZ7; [1]): below the threshold
pKd (DVL3, Q92997; [1]): below the threshold
pKd (PDZRN4_1, Q6ZMN7; [1]): below the threshold
pKd (HTRA3, P83110; [1]): below the threshold
pKd (GRIP2_5, Q9C0E4; [1]): below the threshold
pKd (NHERF4_2, Q86UT5; [1]): below the threshold
pKd (TJP1_3, Q07157; [1]): below the threshold
pKd (Inadl_10, Q8NI35; [1]): below the threshold
pKd (LDB3, O75112; [1]): below the threshold
pKd (MPDZ_12, O75970; [1]): below the threshold
pKd (ARHGEF11, O15085; [1]): below the threshold
pKd (CARD11, Q9BXL7; [1]): below the threshold
pKd (GRIP1_3, Q9Y3R0; [1]): below the threshold
pKd (TJP1_2, Q07157; [1]): 4.56
pKd (LRRC7, Q96NW7; [1]): below the threshold
pKd (NHERF4_4, Q86UT5; [1]): below the threshold
pKd (LNX2_3, Q8N448; [1]): below the threshold

B2: MAP7D2, Q96T17 (peptide)
chain: GQETPLNTFC
pKd (LNX1_1, Q8TBB1; [2]): below the threshold
pKd (IL16_1, Q14005; [2]): below the threshold
pKd (SCRIB_1, Q14160; [2]): 3.88
pKd (GRASP, Q7Z6J2; [2]): below the threshold
pKd (GRIP1_7, Q9Y3R0; [2]): below the threshold
pKd (GIPC2, Q8TF65; [2]): below the threshold
pKd (RHPN1, Q8TCX5; [2]): below the threshold
pKd (MAGI2_3, Q86UL8; [2]): below the threshold
pKd (DLG5_1, Q8TDM6; [2]): below the threshold
pKd (LNX1_3, Q8TBB1; [2]): below the threshold
pKd (NHERF4_1, Q86UT5-2; [2]): 3.6
pKd (MAGI1_2, Q96QZ7; [2]): below the threshold
pKd (DVL3, Q92997; [2]): below the threshold
pKd (PDZRN4_1, Q6ZMN7; [2]): below the threshold
pKd (HTRA3, P83110; [2]): 4.55
pKd (GRIP2_5, Q9C0E4; [2]): below the threshold
pKd (NHERF4_2, Q86UT5; [2]): below the threshold
pKd (TJP1_3, Q07157; [2]): below the threshold
pKd (Inadl_10, Q8NI35; [2]): below the threshold
pKd (LDB3, O75112; [2]): below the threshold
pKd (MPDZ_12, O75970; [2]): below the threshold
pKd (ARHGEF11, O15085; [2]): below the threshold
pKd (CARD11, Q9BXL7; [2]): below the threshold
pKd (GRIP1_3, Q9Y3R0; [2]): below the threshold
pKd (TJP1_2, Q07157; [2]): below the threshold
pKd (LRRC7, Q96NW7; [2]): below the threshold
pKd (NHERF4_4, Q86UT5; [2]): below the threshold
pKd (LNX2_3, Q8N448; [2]): below the threshold

B3: ADRB1, P08588 (peptide)
chain: RPGFASESKV
pKd (LNX1_1, Q8TBB1; [2]): 3.7
pKd (IL16_1, Q14005; [2]): 4.36
pKd (SCRIB_1, Q14160; [2]): 3.94
pKd (GRASP, Q7Z6J2; [2]): below the threshold
pKd (GRIP1_7, Q9Y3R0; [2]): below the threshold
pKd (GIPC2, Q8TF65; [2]): below the threshold
pKd (RHPN1, Q8TCX5; [2]): 4.59
pKd (MAGI2_3, Q86UL8; [2]): below the threshold
pKd (DLG5_1, Q8TDM6; [2]): below the threshold
pKd (LNX1_3, Q8TBB1; [2]): below the threshold
pKd (NHERF4_1, Q86UT5-2; [2]): below the threshold
pKd (MAGI1_2, Q96QZ7; [2]): 3.88
pKd (DVL3, Q92997; [2]): below the threshold
pKd (PDZRN4_1, Q6ZMN7; [2]): 3.69
pKd (HTRA3, P83110; [2]): below the threshold
pKd (GRIP2_5, Q9C0E4; [2]): below the threshold
pKd (NHERF4_2, Q86UT5; [2]): below the threshold
pKd (TJP1_3, Q07157; [2]): below the threshold
pKd (Inadl_10, Q8NI35; [2]): below the threshold
pKd (LDB3, O75112; [2]): below the threshold
pKd (MPDZ_12, O75970; [2]): below the threshold
pKd (ARHGEF11, O15085; [2]): 4.05
pKd (CARD11, Q9BXL7; [2]): below the threshold
pKd (GRIP1_3, Q9Y3R0; [2]): below the threshold
pKd (TJP1_2, Q07157; [2]): below the threshold
pKd (LRRC7, Q96NW7; [2]): 3.59
pKd (NHERF4_4, Q86UT5; [2]): below the threshold
pKd (LNX2_3, Q8N448; [2]): below the threshold
